In patent US20220315967A1, “METHODS FOR PRODUCING D-TRYPTOPHAN AND SUBSTITUTED D-TRYPTOPHANS” (priority 2019, published 2022):

How the values were obtained:
[1] = target: T1, IvoA(C^0) mutant (H1428A)
T1 chain: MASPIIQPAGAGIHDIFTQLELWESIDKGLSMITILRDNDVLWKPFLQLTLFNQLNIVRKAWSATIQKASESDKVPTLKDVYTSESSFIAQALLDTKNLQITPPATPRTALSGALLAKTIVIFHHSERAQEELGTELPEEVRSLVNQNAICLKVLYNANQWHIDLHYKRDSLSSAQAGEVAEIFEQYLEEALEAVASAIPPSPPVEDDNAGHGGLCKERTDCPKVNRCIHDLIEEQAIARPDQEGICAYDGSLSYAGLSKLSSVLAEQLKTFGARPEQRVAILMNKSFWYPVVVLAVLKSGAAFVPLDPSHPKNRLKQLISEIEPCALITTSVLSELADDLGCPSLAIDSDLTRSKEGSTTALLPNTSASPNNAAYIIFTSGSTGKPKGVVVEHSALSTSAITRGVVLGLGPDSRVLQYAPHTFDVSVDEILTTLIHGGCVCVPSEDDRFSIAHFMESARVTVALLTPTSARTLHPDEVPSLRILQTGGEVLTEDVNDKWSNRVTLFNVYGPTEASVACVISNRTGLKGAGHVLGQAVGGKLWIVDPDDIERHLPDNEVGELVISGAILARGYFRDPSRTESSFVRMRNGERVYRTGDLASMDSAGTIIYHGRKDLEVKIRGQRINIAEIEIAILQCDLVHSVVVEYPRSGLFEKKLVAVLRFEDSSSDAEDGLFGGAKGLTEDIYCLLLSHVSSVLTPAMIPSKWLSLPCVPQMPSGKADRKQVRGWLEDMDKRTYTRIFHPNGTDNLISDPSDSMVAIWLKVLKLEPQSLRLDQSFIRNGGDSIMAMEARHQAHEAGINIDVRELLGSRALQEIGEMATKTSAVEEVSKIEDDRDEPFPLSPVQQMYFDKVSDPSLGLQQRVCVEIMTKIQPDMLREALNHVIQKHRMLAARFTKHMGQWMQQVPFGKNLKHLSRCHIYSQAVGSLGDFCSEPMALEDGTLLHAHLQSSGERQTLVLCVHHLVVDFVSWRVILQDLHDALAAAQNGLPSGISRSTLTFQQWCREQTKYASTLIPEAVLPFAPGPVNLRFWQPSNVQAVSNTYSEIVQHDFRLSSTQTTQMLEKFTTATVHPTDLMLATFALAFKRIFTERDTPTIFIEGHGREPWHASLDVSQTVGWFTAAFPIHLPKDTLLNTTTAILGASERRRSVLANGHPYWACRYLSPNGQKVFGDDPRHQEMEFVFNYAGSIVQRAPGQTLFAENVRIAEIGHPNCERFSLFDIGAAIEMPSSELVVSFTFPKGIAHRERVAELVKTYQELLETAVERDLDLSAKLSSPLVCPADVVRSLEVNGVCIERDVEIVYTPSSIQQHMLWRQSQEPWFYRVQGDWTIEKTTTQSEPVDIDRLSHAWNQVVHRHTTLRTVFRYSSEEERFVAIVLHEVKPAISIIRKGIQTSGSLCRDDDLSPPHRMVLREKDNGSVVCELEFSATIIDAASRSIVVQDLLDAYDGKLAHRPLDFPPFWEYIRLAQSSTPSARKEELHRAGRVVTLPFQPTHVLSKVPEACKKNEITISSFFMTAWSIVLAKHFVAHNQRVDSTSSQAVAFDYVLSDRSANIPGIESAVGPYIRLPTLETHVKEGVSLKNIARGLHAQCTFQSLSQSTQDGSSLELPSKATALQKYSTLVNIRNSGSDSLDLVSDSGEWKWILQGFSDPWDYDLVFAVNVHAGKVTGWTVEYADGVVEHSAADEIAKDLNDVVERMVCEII

[2] = target: T2, IvoA-ΔC truncation mutant
T2 chain: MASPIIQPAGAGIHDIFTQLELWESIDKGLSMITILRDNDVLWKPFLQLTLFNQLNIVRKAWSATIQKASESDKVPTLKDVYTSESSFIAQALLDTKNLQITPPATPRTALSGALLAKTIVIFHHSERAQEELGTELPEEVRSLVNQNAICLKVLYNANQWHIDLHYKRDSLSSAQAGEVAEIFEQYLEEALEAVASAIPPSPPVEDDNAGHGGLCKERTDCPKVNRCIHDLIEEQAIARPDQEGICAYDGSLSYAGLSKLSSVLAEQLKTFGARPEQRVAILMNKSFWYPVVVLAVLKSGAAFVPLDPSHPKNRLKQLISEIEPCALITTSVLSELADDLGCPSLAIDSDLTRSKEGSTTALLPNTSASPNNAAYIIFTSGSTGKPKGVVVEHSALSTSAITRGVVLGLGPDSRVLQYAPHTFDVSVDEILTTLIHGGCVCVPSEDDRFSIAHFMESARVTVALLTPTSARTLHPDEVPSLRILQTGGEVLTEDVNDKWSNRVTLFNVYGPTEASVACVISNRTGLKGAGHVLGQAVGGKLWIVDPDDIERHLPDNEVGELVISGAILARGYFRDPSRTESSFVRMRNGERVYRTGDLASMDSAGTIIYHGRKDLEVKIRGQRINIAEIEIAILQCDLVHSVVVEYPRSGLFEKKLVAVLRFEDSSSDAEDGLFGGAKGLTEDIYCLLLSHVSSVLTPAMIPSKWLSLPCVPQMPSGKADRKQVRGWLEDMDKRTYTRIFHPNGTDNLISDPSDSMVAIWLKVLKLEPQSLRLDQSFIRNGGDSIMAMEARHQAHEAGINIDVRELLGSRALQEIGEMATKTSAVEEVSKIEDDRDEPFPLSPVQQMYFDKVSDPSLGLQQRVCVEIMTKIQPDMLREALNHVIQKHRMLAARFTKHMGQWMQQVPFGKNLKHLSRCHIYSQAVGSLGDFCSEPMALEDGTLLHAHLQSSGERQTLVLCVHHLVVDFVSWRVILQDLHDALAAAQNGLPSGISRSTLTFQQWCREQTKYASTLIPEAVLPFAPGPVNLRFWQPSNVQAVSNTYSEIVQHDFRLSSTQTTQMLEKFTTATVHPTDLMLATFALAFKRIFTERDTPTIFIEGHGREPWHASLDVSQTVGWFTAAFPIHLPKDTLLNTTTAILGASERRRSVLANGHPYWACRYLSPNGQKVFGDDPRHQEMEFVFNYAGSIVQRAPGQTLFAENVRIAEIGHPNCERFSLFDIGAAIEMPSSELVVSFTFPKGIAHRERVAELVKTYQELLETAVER

B1: standalone IvoA-C (condensation (C) domain of Aspergillus nidulans single-module NRPS IvoA) (protein)
chain: DLDLSAKLSSPLVCPADVVRSLEVNGVCIERDVEIVYTPSSIQQHMLWRQSQEPWFYRVQGDWTIEKTTTQSEPVDIDRLSHAWNQVVHRHTTLRTVFRYSSEEERFVAIVLHEVKPAISIIRKGIQTSGSLCRDDDLSPPHRMVLREKDNGSVVCELEFSHTIIDAASRSIVVQDLLDAYDGKLAHRPLDFPPFWEYIRLAQSSTPSARKEELHRAGRVVTLPFQPTHVLSKVPEACKKNEITISSFFMTAWSIVLAKHFVAHNQRVDSTSSQAVAFDYVLSDRSANIPGIESAVGPYIRLPTLETHVKEGVSLKNIARGLHAQCTFQSLSQSTQDGSSLELPSKATALQKYSTLVNIRNSGSDSLDLVSDSGEWKWILQGFSDPWDYDLVFAVNVHAGKVTGWTVEYADGVVEHSAADEIAKDLNDVVERMVCEII
[1]
  stereoinversion activity (complementation in trans): Addition of IvoA-C in equimolar to either IvoA(C^0) mutant or IvoA-ΔC truncation mutant successfully rescued the impaired stereoinversion activity
[2]
  stereoinversion activity (complementation in trans): Addition of IvoA-C in equimolar to either IvoA(C^0) mutant or IvoA-ΔC truncation mutant successfully rescued the impaired stereoinversion activity
